Data set [1] addresses T1, Zur (Bacillus thuringiensis BMB171, UniProt A0A0G3E7H1 1-137). Kind of data set: EMSA; 100 uM MnCl2 (Mn2+ addition did not affect the interaction); 50 mM Tris-HCl pH 7.5, 10 mM MgCl2, 1 mM DTT, 100 mM NaCl, 100 uM MnCl2; 25 C, 30 min; 6% native PAGE in 0.5x TBE; DNA stated as 50 uM. The settings on record: protein: recombinant; tags: C-terminal 6xHis (pET28b); chain copies: 2; label: none (YeaRed gel stain); blunt. For orientation: A gel shift assay detects complexes by their altered migration in electrophoresis.

Data set [2] addresses T1, Zur. Kind of data set: EMSA; 100 uM MnCl2 per Methods; 50 mM Tris-HCl pH 7.5, 10 mM MgCl2, 1 mM DTT, 100 mM NaCl, 100 uM MnCl2; 25 C, 30 min; 6% native PAGE in 0.5x TBE; DNA stated as 50 uM. The settings on record: protein: recombinant; tags: C-terminal 6xHis (pET28b); chain copies: 2; label: none (YeaRed gel stain); blunt.

B1: Bc1 dual terminator coding sequence (dsDNA)
DNA 1: CCAATGCTTTTACATTGGCTTTTTTTTATTCTCGAACATATTGAGAAACATTTTCAAAC
DNA 2: GTTTGAAAATGTTTCTCAATATGTTCGAGAATAAAAAAAAGCCAATGTAAAAGCATTGG
As for B1, the binding result with Zur [1] is reported as “binds”.

B2: mutant Bc1 dual terminator coding sequence (dsDNA)
DNA 1: CCAATGCTTTTACATTGGCTTTTTTTTATTCTCGAACATGCCACACCCATAAGCAGCCT
DNA 2: AGGCTGCTTATGGGTGTGGCATGTTCGAGAATAAAAAAAAGCCAATGTAAAAGCATTGG
Turning to B2, the binding result with Zur [2] is “no binding”.

B3: ck+ (dhbA positive control) (dsDNA)
DNA 1: TTATTTTTATAATTGATAATGATAATCATTATCAATAGATTGCGTTTTTC
DNA 2: GAAAAACGCAATCTATTGATAATGATTATCATTATCAATTATAAAAATAA
As for B3, the binding result in the data set with Zur [2] is recorded as “binds”.
